These results are taken from paper PMC2823781, “The X-Ray Crystal Structure of Escherichia coli Succinic Semialdehyde Dehydrogenase; Structural Insights into NADP^+/Enzyme Interactions” (PLoS ONE, 2010).

The target in assay [1] is Escherichia coli succinic semialdehyde dehydrogenase (gabD gene product, NADP+-dependent) (E. coli) (UniProt P25526). The experiment in a line: SEC; analytical size-exclusion chromatography of purified recombinant SSADH; data not shown. (Size exclusion chromatography separates by hydrodynamic size, large species first.)
Assay [2] deals with T1, E. coli SSADH (gabD gene product) (Escherichia coli, UniProt P25526).
T1 construct: expressed in E. coli BL21(DE3) pLysS; homotetramer, 481 residues per monomer in crystal; single amino acid change versus database gabD, not specified
The experiment in a line: fluorometric NADPH formation (ex […] nm, em […] nm). It is filed as biochemical. Particulars: 1.1 mM NADP+, 100 mM Na phosphate pH 8.0, 30 °C; varied substrate SSA (range printed as 0–400 mM), substrate not named beside Km.

For “Escherichia coli succinic semialdehyde dehydrogenase (gabD gene product, NADP+-dependent) (from UniProt P25526 1-482) (enzyme)”, the stoichiometry N (as a rule, the number of molecules, sites or subunits per partner or assembly) in assay [1] is 4.
With `O=CCCC(=O)O` [SSA, succinic semialdehyde], the Km (in general, the substrate concentration at which the rate is half of its maximum) in assay [2] was found to be 16.9 ± 2.2 µM.
